According to PMC1435831:
Like-named read-outs stand apart in the source and are kept apart here.

What was measured:
[1] = molecular target: His-tagged SmpB protein (small protein B), wild type (E. coli) (UniProt P0A832); test: SPR
[2] = molecular target: His-tagged SmpB protein (small protein B), wild type (E. coli) (UniProt P0A832); test: SPR; remark: listed apart in the source

Sequence of UniProt P0A832 (P0A832 whole entry): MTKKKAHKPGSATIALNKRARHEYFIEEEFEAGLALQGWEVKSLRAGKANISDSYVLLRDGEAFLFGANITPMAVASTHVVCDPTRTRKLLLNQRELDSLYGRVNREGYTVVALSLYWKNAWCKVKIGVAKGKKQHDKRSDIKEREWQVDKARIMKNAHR

Substance: 30S ribosomal subunit (complex)
- Kd [1]: 4.4 nM
- Kd [2]: 0.17 nM

Substance: 50S ribosomal subunit (complex)
- Kd [1]: 4.8 nM
- Kd [2]: 0.17 nM

Substance: 70S ribosome (complex)
- Kd [1]: 7.3 nM
